T1: human KLK5 (human, UniProt Q9Y337 67-293)
T1 construct: also called hKLK5; active KLK5; not shown: C-terminal tag with His tag, encoded by primers 3/4
T1 sequence: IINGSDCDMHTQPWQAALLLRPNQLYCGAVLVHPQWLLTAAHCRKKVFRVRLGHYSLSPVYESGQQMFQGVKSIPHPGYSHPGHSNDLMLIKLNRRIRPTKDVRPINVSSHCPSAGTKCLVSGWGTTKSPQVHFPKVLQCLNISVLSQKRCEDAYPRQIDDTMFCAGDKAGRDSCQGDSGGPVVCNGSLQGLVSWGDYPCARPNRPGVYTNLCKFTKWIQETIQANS

T2: human KLK14 (human, UniProt Q9P0G3 25-251)
T2 sequence: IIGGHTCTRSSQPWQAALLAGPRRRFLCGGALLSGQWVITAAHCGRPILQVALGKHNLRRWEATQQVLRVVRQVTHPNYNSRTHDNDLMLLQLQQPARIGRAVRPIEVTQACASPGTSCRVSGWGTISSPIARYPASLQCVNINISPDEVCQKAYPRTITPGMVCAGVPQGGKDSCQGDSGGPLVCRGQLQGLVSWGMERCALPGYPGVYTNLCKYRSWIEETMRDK

T3: mouse KLK14 (mouse, UniProt Q8CGR5 24-250)
T3 sequence: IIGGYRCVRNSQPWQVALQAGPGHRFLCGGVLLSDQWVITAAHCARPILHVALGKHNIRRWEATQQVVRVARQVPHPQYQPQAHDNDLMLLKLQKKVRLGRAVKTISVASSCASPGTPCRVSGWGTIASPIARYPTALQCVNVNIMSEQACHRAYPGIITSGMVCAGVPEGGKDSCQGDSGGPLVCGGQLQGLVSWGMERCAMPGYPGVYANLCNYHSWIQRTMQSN

T4: mouse KLK5 (mouse)
T4 chain: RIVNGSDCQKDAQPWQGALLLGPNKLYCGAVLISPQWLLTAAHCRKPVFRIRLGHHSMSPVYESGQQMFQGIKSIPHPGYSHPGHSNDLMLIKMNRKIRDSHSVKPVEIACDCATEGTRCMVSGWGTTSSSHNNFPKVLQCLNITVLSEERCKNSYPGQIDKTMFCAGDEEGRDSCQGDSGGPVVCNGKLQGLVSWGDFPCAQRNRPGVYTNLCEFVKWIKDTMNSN


Experiments:
[1] = molecular target: T1, human KLK5; test: SPR, BIAcore T200; biotinylated KLK5 captured on chip, peptide as analyte; single cycle kinetics, 1:1 model
Method: In order to measure the binding affinity of the KLK5 inhibitory peptides, surface plasmon resonance analysis was conducted using BIAcore T 200 (GE healthcare). A complementary strand of DNA of a streptavidin conjugate was captured by hybridization on Sensor Chip CAP (GE healthcare) on which single-stranded DNA immobilized. Next, KLK5 biotinylated using EZ-Link NHS-PEG4-Biotin (Thermo Fisher Scientific) was captured at a flow rate of 10 μL/min to immobilize about 10 RU. Thereafter, the KLK5 inhibitory peptide, serially diluted 2-fold with HBS-EP (0.625 to 10 nM), was added thereto as an analyte at a flow rate of 30 μL/min. In the BIAcore T 200 Evaluation software (version 2.0), kon and koff were calculated by analysis using Single cycle kinetics in a simple one-to-one Langmuir binding model. The dissociation constant KD was calculated as a ratio of koff/kₒₙ. Further, multiple KLK5 inhibitory peptides were measured by regenerating Sensor Chip CAP using a Regeneration buffer attached to a Biotin CAPture Kit (GE healthcare) and repeatedly capturing biotinylated KLK5.

[2] = molecular target: T1, human KLK5; test: cell-based or functional assay
[3] = molecular target: human KLK7 (human, UniProt P49862 30-253); test: cell-based or functional assay
[4] = molecular target: T2, human KLK14; test: cell-based or functional assay
[5] = molecular target: bChymotrypsin; test: fluorogenic peptide substrate cleavage, 1 µM inhibitor
Method: FIG. 3A includes graphs to evaluate the cross-reactivity of each inhibitory peptide with proteases, using the degradation of a peptide substrate as an index. For evaluating the Bovine trypsin inhibitory activity, trypsin (Pierce, 20233) with a final concentration of 5 nM and a substrate peptide Boc-Val-Pro-Arg-AMC (R&D Systems, Inc., ES011) with a final concentration of 100 μM were used. For evaluating the Human trypsin inhibitory activity, trypsin (Sigma-Aldrich Co. LLC, T6424) with a final concentration of 1 nM and a substrate peptide Boc-Val-Pro-Arg-AMC (R&D Systems, Inc., ES011) with a final concentration of 100 μM were used. For evaluating the Bovine α-chymotrypsin inhibitory activity, chymotrypsin (Worthington Biochemical Corporation, LS001434) with a final concentration of 10 nM and a substrate peptide Suc-Leu-Leu-Val-Tyr-MCA (PEPTIDE […], INC., 3120-v) with a final concentration of 100 μM were used.
The specificities for other proteases were evaluated using the degradation of a substrate peptide as an index. As in the method described in (3-1), 25 μL each of a protease and a sample diluted with an assay buffer were mixed (to a final concentration of sample of 1 μM), followed by a reaction at 37° C. for 20 minutes. Thereafter, 50 μL of a substrate diluted with an assay buffer was added thereto, and the fluorescence signal was measured using Enspire (PerkinElmer). An assay buffer (50 mM Tris, 150 mM NaCl, pH 8.0) was used for the evaluation of the protease activity, and a PROTEOSAVE® SS96F black plate (Sumitomo Bakelite Co., Ltd.) was used for the reaction and the measurement. The combinations of the protease and the substrate used for the evaluation of the specificity were as follows.

[6] = molecular target: mouse KLK7 (mouse, UniProt Q91VE3 26-249); test: cell-based or functional assay
[7] = molecular target: T3, mouse KLK14; test: cell-based or functional assay
[8] = molecular target: T4, mouse KLK5; test: cell-based or functional assay

Sequence of mouse KLK7 (Q91VE3 26-249): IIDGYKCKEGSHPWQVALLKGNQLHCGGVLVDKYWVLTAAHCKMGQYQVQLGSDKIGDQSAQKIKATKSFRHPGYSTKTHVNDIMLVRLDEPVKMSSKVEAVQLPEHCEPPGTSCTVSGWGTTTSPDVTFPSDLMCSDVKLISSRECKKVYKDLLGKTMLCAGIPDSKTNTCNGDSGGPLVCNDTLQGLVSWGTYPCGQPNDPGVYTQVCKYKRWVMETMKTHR
Sequence of human KLK7 (P49862 30-253): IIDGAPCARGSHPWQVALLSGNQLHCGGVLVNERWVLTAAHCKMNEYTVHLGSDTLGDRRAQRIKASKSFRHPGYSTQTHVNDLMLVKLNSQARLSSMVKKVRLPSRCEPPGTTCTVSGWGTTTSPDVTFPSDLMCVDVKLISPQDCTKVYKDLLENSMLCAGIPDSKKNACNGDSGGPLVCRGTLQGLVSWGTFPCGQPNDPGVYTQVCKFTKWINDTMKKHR

| Binder | Kd [1] [nM] | koff [1] [s⁻¹] | kon [1] [M⁻¹ s⁻¹] | IC50(nM) for hKLK5 [2] [nM] | IC50(nM) for hKLK7 [3] [nM] | IC50(nM) for hKLK14 [4] [nM] | binding result [5] | IC50(nM) for mKLK7 [6] [nM] | IC50(nM) for mKLK14 [7] [nM] | IC50(nM) for mKLK5 [8] [nM] |
| --- | --- | --- | --- | --- | --- | --- | --- | --- | --- | --- |
| KLK5/KLK14 inhibitory peptide K51069 (SPINK2 mutant peptide made in E. coli) GPQFGLFSKYRTPNCSQVVETYCNRDYDPVCGSDMSTYANECTLCMKIREGGHNIKIIRNGPCGG | ≤ 0.001 | ≤ 1e-06 | 940000 | 6.8 | > 1000 | 72 | binds | 181 | 40 | < 0.5 |
| KLK5/KLK14 inhibitory peptide K50015 (SPINK2 mutant peptide made in E. coli) GPQFGLFSKYRTPNCYDTTTHYCSREYDPVCGSDMSTYANECTLCMKIREGGHNIKIIRNGPCGG | ≤ 0.0011 | ≤ 1e-06 | 940000 | 6.8 | > 1000 | 17 | binds | 248 | 108 | < 0.5 |
